“Also recorded” adds a separate entry of the source. Read-outs that look alike come from different tables or passages of the source.
Assays:
[1] = system: P. falciparum FcB1/Colombian strain; assay: Anti-Plasmodium activity assay (dose-response, 3H-hypoxanthine incorporation), culture with human serum; type: cell-based; settings: for inhibition of P. falciparum development in vitro: standard P. falciparum cultures with serum
Description: (§1) The chloroquine-resistant P. falciparum FcB1/Colombian strain was used. Under the following culture conditions, the in vitro life cycle of the FcB1 strain was 48 hours. Cultures were grown in complete medium consisting of RPMI 1640 (Life Technologies, Inc.) supplemented with 11 mM glucose, 27.5 mM NaHCO3, 100 UI/mL penicillin, 100 μg/mL streptomycin, adjusted to pH 7.4 before addition of heat-inactivated human serum (A+ blood group, 8% final) or Albumax II® (0.5% final), according to the procedure of Trager and Jensen (1976). Parasites were routinely grown at 37° C. in human A+ RBCs (Red blood cells) at a 2% haematocrit and 2-6% parasitemia, in a 3% CO2, 6% O2 and 91% N2 atmosphere. Semi-synchronized cultures were established by Sorbitol (Lambros) treatment. Highly synchronized cultures (4 hour-window synchronization) were obtained by successive Plamion (Pasvol) and Sorbitol treatments. Parasitaemia and stage distribution were determined by optical examination of Diff-Quick stained culture smears. Parasitaemia (expressed in percent) is hundred times the number of parasitized erythrocytes divided by the total number of erythrocytes.
Dried preparations of the purified recombinant human sPLA2s were re-suspended at high concentration (usually 50 μM) in RPMI 0.05% BSA, and then tested individually for their capacity to inhibit the in vitro intra-erythrocytic development of P. falciparum. Dose-response assays based on ^3H-hypoxanthine incorporation by growing parasites were performed as in Guillaume et al. (2004). Radioactivity was measured with a 1450 Microbeta counter (Wallac, Perkin Elmer). Percentage of growth inhibition was calculated from the parasite-associated radioactivity compared with control without sPLA2. Values for the IC50 were determined from dose-response curves.

[2] = Specific activities of sPLA2s on human plasma (NEFA release, NEFA-C kit); type: biochemical; settings: for Specific activity ± SD (μmol NEFA/min × mg enzyme): whole human plasma, 37° C., linear part of kinetic curve, mean of three experiments
Description: Kinetic analysis of human plasma hydrolysis by sPLA2s was performed by mixing on ice 50 μL of crude plasma with recombinant sPLA2s at various final concentrations (respectively 2×, 5× and 10× the IC50 value). At time zero, the mixture was transferred to 37° C. Samples (7 μL) were taken after 5, 15, 30 and 60 minutes of incubation and quickly frozen at −20° C. An aliquot of plasma without enzyme was similarly processed. Concentration of non-esterified fatty acids (NEFAs) in each sample was measured by a discontinuous enzymatic method using the NEFA-C test kit from WAKO, following manufacturer's instructions. The amount of NEFAs in each enzyme-containing plasma sample was subtracted for NEFAs in enzyme-free plasma sample. Specific activity for each of the sPLA2s was determined from the linear part of the curve [NEFA]=f(t). Experiment was repeated three times with plasmas from different donors and different batches of sPLA2s.
Specific activities of sPLA2s on human plasma. Hydrolysis of plasma phospholipids by human and venom sPLA2s was assayed using different incubation times and enzymes concentrations. Hydrolysis was assessed by measuring the amount of NEFAs in samples using the colorimetric assay developed by WAKO (NEFA-C kit). Enzymatic production of NEFAs was corrected for endogenous production of NEFAs measured in the absence of sPLA2. Specific activity for each of the sPLA2s was determined from the linear part of the kinetic curve. Values are the mean of three independent experiments. SD: standard deviation. Anti-P. falciparum activities (IC50) of the respective sPLA2s are given for comparison.

[3] = Rosengren et al., 2006; cited from earlier work
[4] = Enzymatic hydrolysis of purified lipoproteins (NEFA); type: biochemical, human; settings: 15 h at 37° C.
Description: CM/VLDL, LDL and HDL were purified from human plasma and used either fresh (F) or after minimal oxidization by air and light (Ox). After phospholipid content determination, plasma, LDL and HDL were adjusted to 1.6 mg PL/mL final concentration in PBS calcium. Because low amount was available, the CM/VLDL fraction was adjusted to 1.0 mg PL/mL. Each sample was incubated for 15 hours at 37° C., alone or in the presence of recombinant human GX sPLA2 (hGX PLA2; 25 nM), recombinant human GIIF sPLA2 (hGIIF PLA2; 125 nM), bee venom sPLA2 (bvPLA2; 0.18 nM) and Naja mossambica mossambica venom sPLA2 (Naja PLA2; 0.05 nM). NEFAs were quantified using the NEFA-C kit (WAKO). Values are the mean±SD of triplicate measurements. They were normalized by subtracting NEFA amount in the absence of enzyme. Two independent experiments with lipoproteins from different plasmas were performed, which gave similar qualitative results. Results from one experiment are shown;
Plasma and purified LDL and HDL were adjusted to 1.67 mg phospholipid (PL)/mL final concentration in PBS. Because purification yielded low amount of CM/VLDL, the CM/VLDL fraction was adjusted to 1.00 mg PL/mL. CaCl2 (1 mM final) was added to the lipoprotein fractions. 200 μL of each fraction were deposited in a 96-well plate and incubated for 15 hours at 37° C., alone or in the presence of recombinant human GX sPLA2 (hGX PLA2, 25.0 nM), recombinant human GIIF sPLA2 (hGIIF PLA2, 125.0 nM), bee venom sPLA2 (bvPLA2, 0.18 nM) and Naja mossambica mossambica venom sPLA2 (Naja PLA2, 0.05 nM). NEFAs were measured in triplicate using the NEFA-C kit (WAKO). Value from each fraction was normalized by subtracting the NEFA amount in the corresponding fraction without enzyme. Two independent experiments with lipoproteins from different plasmas were performed, which gave similar qualitative results. According to the experiment, maximum hydrolysis reached 50% or 65% of total PLs in the fraction. […]

P. falciparum = assay: Anti-Plasmodium activity assay in Albumax II (serum substitute); type: cell-based; settings: Albumax II instead of serum
Description: as §1, with “Highly synchronized cultures (4 hour-window synchronization) were obtained by successive Plamion (Pasvol) and Sorbitol treatments.” left out, “Parasitaemia (expressed in percent) is hundred times the number of parasitized erythrocytes divided by the total number of erythrocytes.” left out
Dried preparations of the purified recombinant human sPLA2s were re-suspended at high concentration (usually 50 μM) in RPMI 0.05% BSA, and then tested individually for their capacity to inhibit the in vitro intra-erythrocytic development of P. falciparum. […] Radioactivity was measured with a 1450 Microbeta counter (Wallac, Perkin Elmer). Percentage of growth inhibition was calculated from the parasite-associated radioactivity compared with control without sPLA2. Values for the IC50 were determined from dose-response curves. […]

[5] = culture in human red blood cells and serum, mean of independent dose-response assays, read-out: IC50 ± SD (anti-P. falciparum activity)
[6] = Table II, read-out: IC50 (nM), anti-P. falciparum activity given for comparison

Molecule | IC50 [1, 5] [nM] | inhibition of P. falciparum development in vitro [1] | also measured
IID: recombinant human group IID secreted phospholipase A2 | > 250 | non-toxic | 
IB: recombinant human group IB secreted phospholipase A2 | > 1250 | non-toxic | 
XIIA: recombinant human group XIIA secreted phospholipase A2 (protein, UniProt Q9BZM1 23-189, looked up) Group XIIA secretory …: QEQAQTTDWRATLKTIRNGVHKIDTYLNAALDLLGGEDGLCQYKCSDGSKPFPRYGYKPSPPNGCGSPLFGVHLNIGIPSLTKCCNQHDRCYETCGKSKNDCDEEFQYCLSKICRDVQKTLGLTQHVQACETTVELLFDSVIHLGCKPYLDSQRAACRCHYEEKTDL | > 250 | non-toxic | 
III: recombinant human group III secreted phospholipase A2 (protein, UniProt Q9NZ20 20-509, looked up) Group 3 secretory …: GSPALRWYRTSCHLTKAVPGNPLGYLSFLAKDAQGLALIHARWDAHRRLQSCSWEDEPELTAAYGALCAHETAWGSFIHTPGPELQRALATLQSQWEACRALEESPAGARKKRAAGQSGVPGGGHQREKRGWTMPGTLWCGVGDSAGNSSELGVFQGPDLCCREHDRCPQNISPLQYNYGIRNYRFHTISHCDCDTRFQQCLQNQHDSISDIVGVAFFNVLEIPCFVLEEQEACVAWYWWGGCRMYGTVPLARLQPRTFYNASWSSRATSPTPSSRSPAPPKPRQKQHLRKGPPHQKGSKRPSKANTTALQDPMVSPRLDVAPTGLQGPQGGLKPQGARWVCRSFRRHLDQCEHQIGPREIEFQLLNSAQEPLFHCNCTRRLARFLRLHSPPEVTNMLWELLGTTCFKLAPPLDCVEGKNCSRDPRAIRVSARHLRRLQQRRHQLQDKGTDERQPWPSEPLRGPMSFYNQCLQLTQAARRPDRQQKSWSQ |  | non-toxic | 
V: recombinant human group V secreted phospholipase A2 (protein, UniProt P39877 21-138, looked up) Phospholipase A2 group V: GLLDLKSMIEKVTGKNALTNYGFYGCYCGWGGRGTPKDGTDWCCWAHDHCYGRLEEKGCNIRTQSYKYRFAWGVVTCEPGPFCHVNLCACDRKLVYCLKRNLRSYNPQYQYFPNILCS | 162 ± 90.9 | active against P. falciparum | Specific activity ± SD (μmol NEFA/min × mg enzyme) [2]: 0.33 ± 0.09 μmol NEFA/min × mg enzyme; hydrolysis of serum [3]: found active; IC50 [1, 6]: 162 ± 90.9 nM
IIA: recombinant human group IIA secreted phospholipase A2 (inflammatory type) (protein, UniProt P14555 21-144, looked up) Phospholipase A2, membrane …: NLVNFHRMIKLTTGKEAALSYGFYGCHCGVGGRGSPKDATDRCCVTHDCCYKRLEKRGCGTKFLSYKFSNSGSRITCAKQDSCRSQLCECDKAAATCFARNKTTYNKKYQYYSNKHCRGSTPRC | > 1250 |  | hydrolysis of plasma ([2]; high concentration (1 μM), not shown): inefficient at hydrolysing plasma; hydrolysis of serum [3]: found inactive; inhibition of P. falciparum development in vitro ([1]; listed as GIIA): non-toxic; inhibition of P. falciparum development in vitro ([1]; listed as GIIA sPLA2): clearly inactive; also recorded: does not exhibit any inhibitory activity
IIE: recombinant human group IIE secreted phospholipase A2 (protein, UniProt Q9NZK7 20-142, looked up) Group IIE secretory …: NLVQFGVMIEKMTGKSALQYNDYGCYCGIGGSHWPVDQTDWCCHAHDCCYGRLEKLGCEPKLEKYLFSVSERGIFCAGRTTCQRLTCECDKRAALCFRRNLGTYNRKYAHYPNKLCTGPTPPC | > 250 | non-toxic | 
IIF: recombinant human group IIF secreted phospholipase A2, full length (protein, UniProt Q9BZM2 21-168, looked up) Group IIF secretory …: SLLNLKAMVEAVTGRSAILSFVGYGCYCGLGGRGQPKDEVDWCCHAHDCCYQELFDQGCHPYVDHYDHTIENNTEIVCSDLNKTECDKQTCMCDKNMVLCLMNQTYREEYRGFLNVYCQGPTPNCSIYEPPPEEVTCSHQSPAPPAPP | 14.3 ± 10.4 | active against P. falciparum | Specific activity ± SD (μmol NEFA/min × mg enzyme) [2]: 0.92 ± 0.30 μmol NEFA/min × mg enzyme; hydrolysis of triglyceride-rich lipoproteins (CM/VLDL) ([4]; 125 nM): hydrolysed poorly; preferential order of lipoprotein hydrolysis ([4]; each sPLA2 at approximately 10×IC50): same preferential order than GX sPLA2; increase of IC50 value in Albumax II relative to its value in serum (P. falciparum): approximately 17.5 fold; IC50 [1, 6]: 14.3 ± 13.4 nM
XIIB: recombinant human group XIIB sPLA2-like protein (protein, UniProt Q9BX93 20-195, looked up) Group XIIB secretory …: QSDTSPDTEESYSDWGLRHLRGSFESVNSYFDSFLELLGGKNGVCQYRCRYGKAPMPRPGYKPQEPNGCGSYFLGLKVPESMDLGIPAMTKCCNQLDVCYDTCGANKYRCDAKFRWCLHSICSDLKRSLGFVSKVEAACDSLVDTVFNTVWTLGCRPFMNSQRAACICAEEEKEEL | > 250 | non-toxic | 
